{"source": "a protein production outcome set (Wang et al. 2014)"}
{"assay": "label from the status in PepcDB records"}
{"sequence": "MASFYWRIKNEPYQVVECAMRALHFSSRHNKDIALVNLANVLHRAHFPADAAVVVHAALDDSDFFTSYYTLGNIYAMLGEYNHSVLCYDHALQARPGFEQAIKRKHAVLCQQKLEQKLEAQHRSLQRTLNELKEYQKQHDHYLRQQEILEKHKLIQEEQILRNIIHETQMAKEAQLGNHQICRLVNQQHSLHCQWDQPVRYHRGDIFENVDYVQFGEDSSTSSMMSVNFDVQSNQSDINDSVKSSPVAHSILWIWGRDSDAYRDKQHILWPKRADCTESYPRVPVGGELPTYFLPPENKGLRIHELSSDDYSTEEEAQTPDCSITDFRKSHTLSYLVKELEVRMDLKAKMPDDHARKILLSRINNYTIPEEEIGSFLFHAINKPNAPIWLILNEAGLYWRAVGNSTFAIACLQRALNLAPLQYQDVPLVNLANLLIHYGLHLDATKLLLQALAINSSEPLTFLSLGNAYLALKNISGALEAFRQALKLTTKCPECENSLKLIRCMQFYPFLYNITSSVCSGNCHEKTLDNSHDKQKYFDNSQSLDAAEEEPSERGTEEDPVFSVENSGRDSDALRLESTVVEESNGSDEMENSDETKMSEEILALVDEFQQAWPLEGFGGALEMKGRRLDLQGIRVLKKGPRDGVARSSCYGDCRSEDDEATEWITFQVKRVKKPKGDHKKTPGKKVETGQIENGHRYQANLEITGPKVASPGPQGLLDWKTRKVP", "protein production": "failed"}
{"sequence": "MASGQFVNKLQEEVICPICLDILQKPVTIDCGHNFCLKCITQIGETSCGFFKCPLCKTSVRKNAIR", "protein production": "not failed"}
{"sequence": "MASGSTQVKYLGIYQKMKQQILDGEYKINEKIPSSPVLAEEFDVSVLTIKKALDLLVRDGYIIRRRGSGTVVQDWRQQEKARMIQTLTGTKAVYGSEVESKIIEFTIVGADEIIAEKLGISVGDFVYKIIRLRIIHSIPTIMEHTWMPISVIPGVEVSVLEESIYSHIQNKLGLQVGTSVVRVKGIRPDDKEKQFMNLTNQDFLMRVEQVAYLTDGRTFEYSYADHLPETFEFETVITAKSYKEA", "protein production": "not failed"}
{"sequence": "MASKMDTETHYSDVWVVIPAFNEAAVIGKVVTDVRSVFDHVVCVDDGSTDGTGDIARRSGAHLVRHPINLGQGAAIQTGIEYARKQPGAQVFATFDGDGQHRVKDVAAMVDRLGAGDVDVVIGTRFGRPVGKASASRPPLMKRIVLQTGARLSRRGRRLGLTDTNNGLRVFNKTVADGLNITMSGMSHATEFIMLIAENHWRVAEEPVEVLYTEYSKSKGQPLLNGVNIIFDGFLRGRMPR", "protein production": "failed"}
{"sequence": "MASKPEKRVASSVFITLAPPRRDVAVSEEVGQAACEARRARPWEMLPTKTPGAAVGRSPKTWTPSGKTNASLSGVTPQLSNGGCSLPPPSLNEEDLDLPPPPPPPSAYLPLPEEEPPVLPGKSLISDLEQLHLPPPPPPPPPQAPSKGSSVHPPPGHAIPSEEELPPPPEEPVTLPEREVSTDVCGFCHKPVSPRELAVEAMKRQYHAQCFTCRTCRRQLAGQRFYQKDGRPLCEPCYQDTLEKCGKCGEVVQEHVIRALGKAFHPPCFTCVTCARCISDESFALDSQNQVYCVADFYRKFAPVCSICENPIIPRDGKDAFKIECMGRNFHENCYRCEDCSVLLSVEPTDQGCYPLNDHLFCKPCHLKRSAAGCC", "protein production": "failed"}
{"sequence": "MASKSQKKVLKKQNKKKKKDPLAPKRALSAYMFYVKDKRLEIIKEKPELAKDVAQVGKLIGEAWGQLSPAQKAPYEKKAQLDKVRYSKEIEEYRKKNQE", "protein production": "failed"}
{"sequence": "MASLEVSRSPRRSRRELEVRSPRQNKYSVLLPTYNERENLPLIVWLLVKSFSESGINYEIIIIDDGSPDGTRDVAEQLEKIYGSDRILLRPREKKLGLGTAYIHGMKHATGNYIIIMDADLSHHPKFIPEFIRKQKEGNFDIVSGTRYKGNGGVYGWDLKRKIISRGANFLTQILLRPGASDLTGSFRLYRKEVLEKLIEKCVSKGYVFQMEMIVRARQLNYTIGEVPISFVDRVYGESKLGGNEIVSFLKGLLTLFATT", "protein production": "failed"}
{"sequence": "MASLRVACVIPTYNGRKDLERLLDSLATQTASFDTLIVDSSSSDGTLELAQARCANVLRIDSKDFNHGGTRQMMVDVHPDYDVYVYMTQDAYVEDIDAIANILLPFADPKVGAVCGRQLPHKNANLLAQHARLFNYPPTSQIKTLADAGTLGIKTPFMSNSFAAYRGEALRAIGGFPRHVILSEDMYVTAKMLIDGWKVAYEGSAVCRHSHNYSLREEFCRYFDIGVFQSREAWIYETFGGIGGEGMRYVKSELKFLGPRRLLWWPMSFVRNALKLLAYKLSKQEKRLPRGLKKKLGMYKRYWDSPYA", "protein production": "failed"}
{"sequence": "MASLVAYDDSDPESEADPARSGDAAGQMSDVSGISRPEVEFASSTGVTKEGAQHTGNSPYEDPGKQRLPLARLWRSDPGSCPSQRLQWPSKEPDSTFPTSEPPGPSLWMNRAPVGHVPLAAACFKPLKPAWDAFTPSHTHSKLESTAGNASSSQRKRGEACVLPYIPKRLRQLQVLNPEATGGRDVEPPGSPAGCAPAPLCVAPTVSEFIQPYLNSQYRETTVPKKVLFHLRGHRGPVNSIQWCPVFSKSHMLLSASMDKTFKVWNAVDSGHCLQTYSVHSEAVRAARWSPCGRRILSGGFDFALHLTDLETGTQVFSGHSDFRVTTLKFHPKDHNVFLCGGFSSEIKAWDMRTGKVVKGYKATIQQTLDILFLQEGSEFLSSTDASTRDSADRTIIAWDFRTAAKISNQIFHERYTCPSLALHPREPVFLAQTNGNYLALFSSVWPYRMSRRRRYEGHKVEGYAVGCECSPCGDLLVTGSADGRVLMFSFRTASRACTLQGHTQACLGTTYHPVLPSVLGTCSWGGDIKIWH", "protein production": "failed"}
{"sequence": "MASPAAGDVLIVGSGLVGRSWAMLFASGGFRVKLYDIEPRQITGALENIRKEMKSLQQSGSLKGSLSAEEQLSLISSCTNLAEAVEGVVHIQECVPENLDLKRKIFAQLDSIVDDRVVLSSSSSCLLPSKLFTGLAHVKQCIVAHPVNPPYYIPLVELVPHPETSPATVDRTHALMRKIGQSPVRVLKEIDGFVLNRLQYAIISEAWRLVEEGIVSPSDLDLVMSDGLGMRYAFIGPLETMHLNAEGMLSYSDRYSEGMKRVLKSFGSIPEFSGATVEKVNQAMCKKGPADPEHLAARREWRDECLKRELAKLKRQMQPQ", "protein production": "not failed"}
{"sequence": "MASPLYPSVLNNPLSSIVVTRDEFNAFHTIDRTLFSRLVFNLNRDVDQSFLAMCFLLFLEQSSYARDIIAYLVSLPNAFVDAVANEIGVCINLLYNVEFASTFFAADNDDNSMIPLLLRITGGKFTLRLINQQRKNFCAGVTKSWTDVCTRAFSDLCETAHRINREKQLALEREKFIEDMKKLRLSLQQEKSNRLSVQQVKIASPPPPRPHPPVEDETEKALREKETMEVKEKEGVLAADDRTVFLTFSKGYPISEAEVRVYFTRRFGEVIEAVEMQEVEANEQPLFAKMVMKLQCASMMDEIVSARFRNKFTIDGKHVWARKYVRKNPYPASSSTHF", "protein production": "failed"}
{"sequence": "MASREVSITRISPLATFRVALAMSIIGLVAWIICVTVLYFGLNVAGVWQNFNDVIGGVGAEQTITFGLVLSISALLGAIGAITVAVLAPLCAIIYNSIVDLFGGLQIQLQEEVD", "protein production": "failed"}
{"sequence": "MASSLITSAVIVVVLSLVLGSVEQVSGLRHVPKSPKTTDVKHPDFLVTIEPKPTILIPGVGRFLLPPKCKKPFYPYNPVTGAPLTGGGIPSYNGGQGAGPHTQLPGGDDTLVPNPGFEAPTPTIGAGTGSNGQVPPVPLP", "protein production": "failed"}
{"sequence": "MASSPRPTEQTKQFFQQWQTYQQLVDHNYMAHRQIHQAVGALIQQQFDRPFDFLDLGCGDAQAIAKTLTGSKINSYTGVDLSPNALALAQKNLDPFRQVELRETDFLTYLGEANQTAPASFDLIHVGFSLHHLLPEEKEQFFAHCFSLLRPGGCLVIYDVFRQPEQNRQQYIEAYLAKAESQWTALAPDQLQAIAAHIKECDFPELVATMAEIGQKVGFIPPQVLFTEPRGFHHCFAFAISQSGKALAQDGV", "protein production": "failed"}
{"sequence": "MASTYYELLGVSKYASEADIKKAFKDLAKKYHPDKHPGEAFYEEHFKKINEAYQILSDKQARQNYDFRLQYGQHAQQSRPAQNQQRAYQRPTATYQQPKYRRPKPAASGTSAYQKKLNTYYISIAIGAVVFIFACYWFYSFMNTYSSKKYFNEGLKAESRGNDMQALSFYFSALEINLKNPEVNEKIGDLYSKFATNSSYDLFYYDLELQKNFQDPDFDATSIELLKKTRNVDSLAALYYKRSFENFEMPVDKRRVGLKSIKACLKTGDYKQAADNLYKVSFLPDYKRDDSVLYYRGDVIFQTRFYDQARDNYRKFLALHPTSAEASVKIAVCHYNEHNEDYALAQLAKTIKRFPANGEAYYFLGQIHLRNNDTLKACSNFYKADSLHVLAAKPSLYKYCRN", "protein production": "failed"}
{"sequence": "MASWPYCNHKRGLNGYGVFFSIFFGSGAYNAPVRIAVLADIHGNADALRAVLKDAAEQGAERLIVNGDVVNRGPDSVQVMEELLARDDTSFVLGNHDDLLRLWHTRSDKLPQDWYDDPFWGATAWSTEQLHAAGLLDVPGDWPLTARLSVPGLPDVLLAHGTPDDYRRGLSERTDPALVRRIADESGAGVLVGSHIHRQADALVGGVRVLNTGAVGSPADGDPRAQYLLLTATPQGWQTELRRVPYDRSGVLQRFETSGLLDTGLSARIFRDELVTARSLYTPYWEWTETGGCPRDTASWEQFAQDWT", "protein production": "failed"}
{"sequence": "MASYVFIRVSKIRKGYFPVLLAIGFAITFAEGFILFLVNFGAIPTNGPTIQLVPQIIMQNPNPLIRFYGTLILLCFLNTIVLSIFYATIAKLLPKFSG", "protein production": "failed"}
{"sequence": "MATAENTELIDRFEEFYRNYYRNEIGELAQKYPNDQKSLYIDWDDLYRFDPDLADDYRTKPEQIQEYAEEALRLYDLPVDVSLGQAHVRVRNLPESEDIRDLRHEHHGNLVAVRGIIRKATDVRPKVIEAAFECQRCGTLTRIPQTAGDFQEPHDCQGCERQGPFRLNTDQSQFIDAQKLRVQESPEGLRGGETPQSIDINIEDDITGHVTAGDHVRVTGILKLDQRGNDNEKSPMFDIYMEGVSVEIEDEQFEDMEITDADKTEIVELSSEPDIYDKMVGAIAPSIYGYEKEKLAMMLQLFSGVTKELPDGSRIRGDLHMLLIGDPGTGKCVHGDTRVTLADGHERPIREVVESNLDDPKPVDDGVWDTVDFDVPSLQSDGTVATQNATKVWKRKAPETLYRIRTATGRELDVTPSHPLFVQSDGRFQARKAEELESGTHVAVPRKVSTNACNELDVTFRQSQAHNRIDLDLPPQWTPELARLIGYIVAEGYVEQRPDNTGYVSITNNDREVLDDAKSVLETLNLNVTERSSHEGKTARELLCSAGEFVSFLASLDETLLQSSAERRVPQDIMRASDNVVTGFIRGYIEGEGHVSTSQREITVASMSKPLLEDVRTLLVTQGITAQLQPRNNGSYRLRISGQSFHDYAEQIGFITARKTEACRQFEGTHGNTNLDIVPNLGPELRRIREALGLTQSECGLPRSTYQHYERGRRNPSRDSLESVLDAFETRLAEMNNDTPISDTARSDGGGTGSLRQDLNGLAALVEGDIAWDRIESIEPIEHDEKWVYDLEIEGTHNYLTNGVVSHNSQMLSYIENIAPRSVYTSGKGSSSAGLTAAAVRDDFGDGQQWTLEAGALVLADQGIAAIDELDKMSPEDRSAMHEALEQQRISVSKAGINATLKSRCSLLGAANPKYGRFDQYEPIGEQIDLEPALISRFDLIFTVTDKPDEEKDRNLAEHIIQTNYAGELHTHRTENPTSNFSEEEVGTVTEEVAPTIEPDLLRKYVAYAKRNCFPTMTEEAKSRIEDFYVDLRLKGQDEDAPVPVTARKLEALVRLAEASARIRLSDTVDEADADRAVDIAHYCLKEIGVDPETGEFDADVVETGQSKTQRDRIQNIKGIISDIEDEYDEGAPADVVIERAEEVGIDESKAEHEIDKLKQKGEVYEPRTDHLRTT", "protein production": "failed"}
